Source: publication PMC6620310, “A ubiquitin-like domain is required for stabilizing the N-terminal ATPase module of human SMCHD1” (Communications Biology, 2019)
Numbering of substitutions follows the chain as printed. Names and notes keep the numbering of the source.

B1: SMCHD1(24–580) Q345R (domain or fragment, human, UniProt A6NHR9 24-580, looked up)
chain: GHRTVYLFDRREKESELGDRPLQVGERSDYAGFRACVCQTLGISPEEKFVITTTSRKEITCDNFDETVKDGVTLYLLQSVNQLLLTATKERIDFLPHYDTLVKSGMYEYYASEGQNPLPFALAELIDNSLSATSRNIGVRRIQIKLLFDETQGKPAVAVIDNGRGMTSKQLNNWAVYRLSKFTRQGDFESDHSGYVRPVPVPRSLNSDISYFGVGGKQAVFFVGQSARMISKPADSQDVHELVLSKEDFEKKEKNKEAIYSGYIRNRKPSDSVHITNDDERFLHHLIIEEKEKDSFTAVVITGVQPEHIQYLKNYFHLWTRRLAHIYHYYIHGPKGNEIRTSKEVEPFNNIDIEISMFEKGKVPKIVNLREIQDDMQTLYVNTAADSFEFKAHVEGDGVVEGIIRYHPFLYDRETYPDDPCFPSKLKDEDDEDDCFILEKAARGKRPIFECFWNGRLIPYTSVEDFDWCTPPKKRGLAPIECYNRISGALFTNDKFQVSTNKLTFMDLELKLKDKNTLFTRILNGQEQRMKIDREFALWLKDCHEKYDKQIKFTLFK
notes: SMCHD1, human, residues 24-580 with the arhinia variant Q345R; PDB 6MW7 holds the same limits with E147A; Human disease variant (arhinia); also called p.Q345R; source: E. coli Rosetta2(DE3), purified (Glutathione 4B Sepharose, TEV cleavage, Superdex200)
B2: SMCHD1(24–580/E147A), seleno-methionine-labeled (domain or fragment, human, UniProt A6NHR9 24-580, looked up)
chain: B1 chain with E124A, R322Q
modifications: selenomethionine substituted for methionine
notes: Crystallised as a homodimer with one ATP per monomer; two homodimers in the asymmetric unit; also called SMCHD1 E147A; source: E. coli B834(DE3), purified (glutathione resin, TEV cleavage, Superdex200 with Mg2+/ATP, MonoQ)
B3: SMCHD1(24–580) E473G (domain or fragment, human, UniProt A6NHR9 24-580, looked up)
chain: B1 chain with R322Q, E450G
notes: SMCHD1, human, residues 24-580 with the arhinia variant E473G; PDB 6MW7 holds the same limits with E147A; Human disease variant (arhinia); also called p.E473G; source: E. coli Rosetta2(DE3), purified (Glutathione 4B Sepharose, TEV cleavage, Superdex200)
B4: SMCHD1(24–580) S135C (domain or fragment, human, UniProt A6NHR9 24-580, looked up)
chain: B1 chain with S112C, R322Q
notes: SMCHD1, human, residues 24-580 with the arhinia variant S135C; PDB 6MW7 holds the same limits with E147A; Human disease variant (arhinia); also called p.S135C; source: E. coli Rosetta2(DE3), purified (Glutathione 4B Sepharose, TEV cleavage, Superdex200)
B5: SMCHD1(24–580) G137E (domain or fragment, human, UniProt A6NHR9 24-580, looked up)
chain: B1 chain with G114E, R322Q
notes: SMCHD1, human, residues 24-580 with the variant G137E (implicated in both arhinia and FSHD2); PDB 6MW7 holds the same limits with E147A; Human disease variant (arhinia and FSHD2); also called p.G137E; source: E. coli Rosetta2(DE3), purified (Glutathione 4B Sepharose, TEV cleavage, Superdex200)
B6: SMCHD1(24–580) H348R (domain or fragment, human, UniProt A6NHR9 24-580, looked up)
chain: B1 chain with R322Q, H325R
notes: SMCHD1, human, residues 24-580 with the arhinia variant H348R; PDB 6MW7 holds the same limits with E147A; Human disease variant (arhinia); also called p.H348R; source: E. coli Rosetta2(DE3), purified (Glutathione 4B Sepharose, TEV cleavage, Superdex200)
B7: SMCHD1(24–580) E473Q (domain or fragment, human, UniProt A6NHR9 24-580, looked up)
chain: B1 chain with R322Q, E450Q
notes: SMCHD1, human, residues 24-580 with the arhinia variant E473Q; PDB 6MW7 holds the same limits with E147A; Human disease variant (arhinia); also called p.E473Q; source: E. coli Rosetta2(DE3), purified (Glutathione 4B Sepharose, TEV cleavage, Superdex200)
B8: SMCHD1(24–580) N139H (domain or fragment, human, UniProt A6NHR9 24-580, looked up)
chain: B1 chain with N116H, R322Q
notes: SMCHD1, human, residues 24-580 with the arhinia variant N139H; PDB 6MW7 holds the same limits with E147A; Human disease variant (arhinia); also called p.N139H; source: E. coli Rosetta2(DE3), purified (Glutathione 4B Sepharose, TEV cleavage, Superdex200)
B9: SMCHD1(24–580) T523K (domain or fragment, human, UniProt A6NHR9 24-580, looked up)
chain: B1 chain with R322Q, T500K
notes: SMCHD1, human, residues 24-580 with the arhinia variant T523K; PDB 6MW7 holds the same limits with E147A; Human disease variant (arhinia); also called p.T523K; source: E. coli Rosetta2(DE3), purified (Glutathione 4B Sepharose, TEV cleavage, Superdex200)

Molecular target: the molecule itself
Experiment: cross-linking; glutaraldehyde (final 0.0125%), protein at 2 mg/mL in 20 mM HEPES pH 7.5, 100 mM NaCl, 10% glycerol with 5 mM MgCl2 and 5 mM ATP, 40 min at room temperature, diluted 6.25-fold; SDS-PAGE
B1: binds.

Molecular target: the molecule itself
Experiment: crystal structure; seleno-methionine protein at 8.5 mg/ml with 5 mM Mg2+/ATP, sitting drop; SAD phasing, 2.2 Å
B2: binds.

Molecular target: the molecule itself
Experiment: native gel or EMSA; blue-native PAGE, 4–16% Bis-Tris; 2.2 µg/µl protein incubated with 5 mM MgCl2 and ATP 30 min on ice; 1 mM MgCl2 and 1 mM ATP in the running buffers; monomer and dimer bands quantified
B3: binds.
B4: binds.
B5: binds.
B6: binds.
B7: binds.
B8: binds.
B9: binds.
